This assay deals with full-length Measles virus hemagglutinin (H) on transfected HEK293T cells (Measles virus, strain IC323, UniProt Q786F2). Briefly: flow cytometry on cells. A general note: In flow cytometry, cells or beads pass a laser one at a time.
Sequence of full-length Measles virus hemagglutinin (H) on transfected HEK293T cells (Q786F2 whole entry): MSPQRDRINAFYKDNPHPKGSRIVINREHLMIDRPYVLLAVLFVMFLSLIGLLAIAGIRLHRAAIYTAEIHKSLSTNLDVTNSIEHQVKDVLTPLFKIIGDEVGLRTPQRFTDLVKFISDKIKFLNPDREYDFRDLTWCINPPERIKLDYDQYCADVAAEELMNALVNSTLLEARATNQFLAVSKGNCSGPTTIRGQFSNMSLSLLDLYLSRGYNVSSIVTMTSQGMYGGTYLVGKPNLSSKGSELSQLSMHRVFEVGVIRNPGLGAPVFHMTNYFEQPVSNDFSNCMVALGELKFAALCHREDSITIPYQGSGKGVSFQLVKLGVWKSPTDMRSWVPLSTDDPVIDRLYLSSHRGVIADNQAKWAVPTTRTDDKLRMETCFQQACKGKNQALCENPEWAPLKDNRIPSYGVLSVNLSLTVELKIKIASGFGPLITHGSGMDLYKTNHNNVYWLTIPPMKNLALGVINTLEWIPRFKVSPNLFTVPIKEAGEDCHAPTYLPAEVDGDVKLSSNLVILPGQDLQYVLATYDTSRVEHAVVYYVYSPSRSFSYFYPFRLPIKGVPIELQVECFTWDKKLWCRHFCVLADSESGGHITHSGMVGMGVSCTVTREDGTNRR

B1: human anti-MeV H monoclonal antibody 1C02 (IgG1) (antibody, V domains shown)
VH: EVQLLESGAEVKKPGSSVKVSCKASGGTFSSYGISWVRQAPGQGLEWMGGIIPIFGTANYAQKFRGRVTITADKSTSTAYMELSSLRSEDTAVYYCARERITVAGINYYYGMDVWGQGTTVTVSS
VL: RPVLTQPPSVSGAPGQRVTISCTGSSSNIGAGYDVHWYQQLPGTAPKLLIYGDSNRPSGVPDRFSGSKSGTSASLAITGLQAEDEADYYCQSYDSSLSGVVFGGGTKLTVL
For the molecule B1, the binding result is recorded as “binds”.

B2: human anti-MeV H monoclonal antibody 4D08 (IgG1) (antibody, V domains shown)
VH: QMQLVQSGAEVKKPGASVKVSCKASGYTFTSYAMHWVRQAPGQRLEWMGWINAGNGKTEYSQRFQGRVTITRDTSASTVYMELNSLRSEDTAVYFCARDAYDFWSGYGNWGSNYYYFYMDAWGKGTTVTVSS
VL: EIVMTQSPPSLSASVGDRVTITCRASQSINYYLNWYQQKPGKAPKLLIYAASGLQSGVPSRFSGSGSGTDFTLTISSLQPEDLATYYCQQTYSTPVTFGQGTKLEII
For the molecule B2, the binding result was “binds”.

These data come from article PMC13374049 (Cell host & microbe, 2026).
